# Experimental data from the nanobody polyreactivity screen of Harvey et al. (2022).
# Test: yeast display, Sf9 membrane polyspecificity reagent, FACS + sequencing; frameworks hold sequencing errors
# Outline: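 After 36–48 hours of galactose induction, yeast (Saccharomyces cerevisiae BJ5465) displaying a synthetic nanobody library were stained at 4 °C for 1 hour with 10% biotinylated, detergent-solubilized Sf9 membrane reagent. Streptavidin microbeads enriched the stained cells before FACS sorting into low and high (top ~1%) gates on anti-HA and streptavidin fluorescence. Each clone's polyreactivity label reflects its gate of origin.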
row,Sequence,polyreactivity (PSR sort gate)
1,QVQLVESGGGLVQAGGSLRLSCDASGLILGINSMGWYRQAPGKERELVAAISSSGGRTSYADSVKGRFTISRDNAKNTVYLQMNSLKPEDTAVYYCAKRRTTYSHYDYWGQGTQVTVSS,low polyreactivity
2,HVQLVESGGGLVQAGGSLRLSCAASGRTFVNNAMGWYRQAPGKERELVAAISQSGSRTYYADSVKGRFTISRDNAKNTVYLQMNSLKPEDTAVYYCAARGARYSTSDYWGQGTQVTVSS,high polyreactivity
3,QVQLVESGGGLVQAGGSLRLSCAASGFTFSGYAMGWYRQAPGKERELVASITGSGSSTYYADSVKGRFTISRDNAKNNVYLQMNSLKPEDTAVYYCNAQFIGGWWAIYDYWGQGTQVTVSS,high polyreactivity
4,QVQLVESGGGLVQAGGSLRLSCAASGSTFVRNAMGWYRQAPGKDRELVAAIRWRSGSTYYADSVKGRFTISRDNAKNTVYLQMNSLKPEDTAVYYCAKAFSRTTYRYDYWGQGTQVTVSS,high polyreactivity
5,QVQLVESGGGLVQAGGSLRLSCAASGITFRYYAMGWYRQAPGKERELVAVISTSGGSTYYADSVKGRFTISRDNAKNTVFLQMNSLKPEDTAVYYCAVVWPYYERYYYWGQGTQVTVSS,high polyreactivity
6,QVQLHESGGGLVLAGGSLRLSCSASGNISVYGSMGLYRQAPGKEREFVATIDPGTNTNYADSVKDRFSISRDNAKHTVYLQMNSLKPEDTAVYYCAVEAGSDWPYRYWGHGTQVTVSS,low polyreactivity
7,QVQHVESLGGLVQAGGSLRLSCAASGRTFFGYAMGWYRQEPGKERELVAAISSGGRTYFADSVKGRFTMSRDNAKNTVFLQMNSLKPEDTAVYYCAAQYSARYYYWGLGTQVTVSS,high polyreactivity
8,QVQLVDSGPGLVQAGGSLRLSCAASGGTFQPNARGCYRQAPGKERELVAAISGSGDSTYYADSVKGRFTISRDNAKNTVYLQMNSLKPEDTAVYYCNAYFWFSRYAWGDTSYDYWGQGTQVTVSS,low polyreactivity
9,QVQLVESGGGLVQAGGSLRLSCAASGGTFRVYAMGWYIQAPGKERELVASISWTVGGTYADSVKGRFTISRDNAKNTVYLQMNSLKPEDTAVYYCAAGGEWVNPYFPSSLDYWGQGTQVTVSS,low polyreactivity
10,QVQLVESGGGLVQAGGSLRLGCAASGITFNLYAMGWYRQAPGKERELVAAISRSATSTYYADSVKRRFTISRDNAKNTVYLQMNSLKPEDTAVYYCATRGHYRQTINYWGQGTQVTVSS,high polyreactivity
11,QVQLVESGGGLVQAGGSLRLSCAASGGIFYGYAMGWYRQAPWKERELVAAISSTGGRTYYADSVKGRFTISRDNAKNTVYLQMNSLKPEVTAVYYCAAEDFTRQFEYWGQGTQVTVSS,low polyreactivity
12,QVQLVESGGGLVQAGGSLRLSCAASGFIFSYNAMGWYRTAPGTERELDAAISSSGGTTYYADSVKGRFTISRYNAKNTVYLQMNSLKPEDTAVYYCAADGRTYHHLDGGWYRYDYWGQGTQVTVSS,low polyreactivity
13,QVQLVESGGGLFQAGGSLRLSCAASGSTFGSYAMGWYRQAPAKERELVADISSRGASTYYADSVKGRFTISRDNEKNTVYLEMISLKPEDTAVYYCNTTGEYYDYWGHGTQVTVSS,low polyreactivity
14,QVQLVESGGGLVQAGGSLRLSCAASGGIFAYNAMGWYRQAPGKERELVATISSGVSTNYADSVKGRFTISRDNAKNTVYLPMNSLKPEDTAVYDCAAAIFITGYGSYGYWGQGTQVTVSS,low polyreactivity
15,QVQLQESGGGLVQAGGCLRLSCAASGSIFDPDYMGWYHQAPGKESELVASISLGRITYYADSVKGRFTINRDNAKNTVYLQMNSLKPEDTAVYYCAVRVETIYYYSYWGQGTQVTVSS,high polyreactivity
16,QVQLVVSGGGLVQAGGSLRLSCAASGFIFYRYAMGWYRQAPGKEWELVAAISRSGGTTYYADSVKGRFTISRDNAKNTVYLQKNSLKPEDTAVYYCNVKRGTIGGYYYWGQGTQVTVSS,high polyreactivity
17,QVQLGESGGGLVQAGGSLRLSCAASGRIFTSYPMGWYRQAPGKERELVAAISRSGGSTYYADSVKGRFTISRDNAKNTVYLQMNSLKPEDTAVYYCAKARVVAGYDYWGQGTQVTVSS,high polyreactivity
18,QVQLVESGGGLVQAGGSLRLSCAASGSIFYPNAMGWYRQAPGKERELVAANSIGGGRTYYADSVKGRFTISRDNAKNTVYLQMNSLKPEDTAVYYCAASFYSYTSTWAYRFYYWGQGTQVTVSS,high polyreactivity
19,QVQLVESGGGLVQAGGSLRLSCAASGGIFAYYGMGWYRQAPGKERELVAAIWIGGNTYYADSVKGRFTISRDNAKNTVYLQMNSLKPEDTAVYDCAAAGSAYYSTRKWDSYYYWGQGTQVTVSS,low polyreactivity
20,HVQLVESGGGLVQAGGSLRLSCGASGRIFRGNVMGWYRQAPGTERELVAAISWSGGSSYADAVKGRFSISRDNAKNTVYLQMNRLKPDDTAVYYWNADSLDGPKFDYWGQGTQVTVSS,low polyreactivity
21,QVQLEESGGGLVQAGGSLRLSCAASGITFGFYAMGWYRQAPGKERELVASITWRGGSTYYADSVKGRFTISRVNAKNTVYLHMNSLKPEDTAVYYCAAEQYVFRPRAQEITSYDYWGQGTQVTVSS,high polyreactivity
22,QLQLVESGGGLVQAGGSLRLSCAASGRTLQWSTMGGYRQAPGKERELVAVISKSGGRTYYADSVKGRFTISRDNAKNTVYLQMNSLKPEDTAVYYCNTPHRSSSVRSYGYWGQGTQVTVSS,high polyreactivity

row,Sequence,polyreactivity (PSR sort gate)
1,QVQLVESGGGLVQAGGSLRLSCAASGSTFQKYVMGWYRQAPGKERELVAAISINGVRTYYADSVKGRFTISRDYAKNTVYLQMNSLKPEDTAVFFCNNDTLIRRGSGRGYWGQGTQVNVSS,high polyreactivity
2,QVQLVESGGGLVQAGVSLRLSCAASGSTYNAMGWYRQAPGKEREFVAAITSSGGSTYYADSVKGRFTISRDNAKNTVYLHMNSLNPEDTAVYYCASSYWTAWYQLDYWGQGTQVTVSS,high polyreactivity
3,QVQLVESGGGLVQAGGSLRLSCAASGLTFVWYGKGWYRQATGKERELVAAITRGGSTYYADSVKGRFTISRDNAKNTVYLQMKSLKPEDTAVYYCAARRLERRVRPGYYPYDYWVQGTQVTVSS,high polyreactivity
4,QVQLVESGGGLVQAGGSLRLSCAASGSIFQYNAMGWYRQAPGKERELVADITSAGRTYYADSVKGRFTISRDNAKNTVYLQMNSLKPEDTAVYYCNKDYHYHFSWYGYWGQGTQVTVSS,low polyreactivity
5,QVQLVESGGGLVQAGGRLRLSCAASASTFSDYAMGWYRQAPGKERELVATITSTGDTNYADSVKGRFTISRDNAKNTVYFQMYSLKPVDTAVYYCAAQHKKYGKRGLWNNFGYWGQGTQVTVSS,low polyreactivity
6,QVQLVESGGGLVQAGGSLRLSCAASGFTFYRYAMGWYRPATGKERELVATISASGGSTYYADSVKGRFTISRDNAKNTVYLQMNSLKPEDTAVYYCAVRYKSWYGFNYWGQGTQVTVSS,high polyreactivity
7,QVKLVESGGGLVQAGGSLLLSCAASVLTFYRYVIVCYRQEPGKERELVAAITKSGGSTYYADSVKGRFTISRDNAKNTVYLQMNSLKPEDTAVYYCAVRSYWRGDYWGQGTQVTVSS,high polyreactivity
8,QVQLVESGGGLVQAGGSLRLSCAASGFTFYWYDMGWYRQAPGKERELVSTISTGGGTNYADSVKGRFTISRDNAKNTVYLQMNSLKPEDNAVYYCAADGSAGYQWGYDFEGDYWGQGTEVTVSS,high polyreactivity
9,QVQLVESGGGLVQAGGSLRLSCAASASIFLVYAMGWYRQAPGKERELVAAISRSGRTYADSVKGRFTISRDNAKNTVYLQMNSLKPEDTAVYYCAAGTKRRFEGDYWGQGTQVTVSS,high polyreactivity
10,QVQLVESGGGLVQAGGSLRLSCAASGSTFYEYAMGWYRPAPGKERELVAAISSGGSTYYADSVKGRFTISRDNAKNTVYLQMNSLKPEDTAVYYCNSDCQTYGGEYDYWGQGTQVTVSS,low polyreactivity
11,QVQHVESGGGLVQAGGSLRLSCAASGRTFGLNAMGWYRQAPGKERELVAAISGSGGRTYYADSVKGRFTISRDNAKNTVYLQMNSLKPEDTAVYYCARVPSGQLEYDYWGQGTQVTVSS,high polyreactivity
12,QVQLVESGGGLVQAGGSLRLSCAASGSTFFRYAMGWYRQAPGKEREFVAAITWSGTGTYYADSVKGRFTISRDNAKNTVYLQMNSLKPEDTAVYYCNADPFDLWAFYYGYVYGYYHWGQGTQVTVSS,high polyreactivity
13,QVQLVESGGGLVQAGGRLRLSCAASGRTFYTNTMGWYRQAPGKERELVAAISYSGSSTYYADSVKGRFTISRDNAKNTGYLQINSLKPEDTAVYYCNAVRYYRYYYWGQGTQVTVSS,low polyreactivity
14,QVQLVESGAGLVQAGGSLRLSCAASGGTFESYAMGWYRQAPGTERELVAAISGRGGRTYYADSVKGRFTISRDNAKNTVYLQMNSLKPEDTAVYYCRYWYYRTYYYWGQGTQVTVSS,high polyreactivity
15,QVQLVESGGGLVQAGGSLRLSCAASGSTFGPNTMGWYRQAPRKERELVAAITSTGSTYYADSVKGRFTISRDNAKNTVYLQMNSLKPEDTAVYYCAARRYYGVYYAFYYWGQGTQVTVSS,high polyreactivity
16,QVQLVESGGGLVQAGGSLRLSCAASGSIFTGYAMGWYRQAPGKERELVAAITYGSGRTYYADSVKGRFTISRDNAKNTVYLQMNSLKPEDTAVYYCAAKWSPYYYYIGYDYWGQGTQVTVSS,low polyreactivity
17,QVQLVESGGGLVQAGGSLRLSCAASGRTFVRNAMGWYRQAPGKERELVAAISRGGRTNYADSVQGRFTISRDNAKNTVYLKMNSLKPEDTAVYYCATGAGYYFDYDYWGQVTQVTVSS,high polyreactivity
18,QVQLQESGGGLVQAGGSLRLSCAASGSIFDYVSMGWYRQAPGEERELVVTITLGSNTYYADSVKGRFTISSDIAKNTVYLQMNSLNPVDTAVYYCAASALWGYVYPYWGLGTQVTVSS,high polyreactivity
19,QVQLVDSGGGLVQAGGSLRLSCAASGITLYRYVMRWYRQAPGKESELVADISGRGTSTYYADSVKGPFTISRDNAKNTVYLQMNSLKPEDTAVYYCNAEYTKTGALVIPYTYYYAEDYWGQGTQVTVSS,low polyreactivity
20,QVQLVESGGGLVQAGGSLRLSCAASGSIFDDYVMGWYRQAPGKERELVAAIRSSGGRTYYADSVKGRFTISRDNAKNTVYLQMISLKPEDTAVYYCNAVTKHRQSVPYAYGYWGQGTQVTVSS,high polyreactivity
21,HVQLVESGGGLVQAGGSLRLSFAASGFTFRSYAMGWYRKAPGQERELVAAINWRGDSTYYADSVKGRFTISRDNAKNTVYLQMNSLNPEDTAVYYCNAYSGYIRRTASDYWGQGTQVTVSS,high polyreactivity
